Experimental data taken from patent US20090304718A1 (Boehringer Ingelheim, published 2009).

Columns and labels:
[1] = target: human FAP (fibroblast activation protein alpha) expressed on HT1080 clone v1.33 cells (human) (UniProt Q12884); assay: cell ELISA on ethanol-fixed HT1080 v1.33 cells expressing human FAP; rabbit anti-human-IgG-peroxidase, TMB, OD 450 nm
[2] = target: T1, human FAP (fibroblast activation protein alpha) expressed on HT1080 clone v1.33 cells (human, UniProt Q12884 1-760); assay: cell-based or functional assay
T1 sequence (looked up): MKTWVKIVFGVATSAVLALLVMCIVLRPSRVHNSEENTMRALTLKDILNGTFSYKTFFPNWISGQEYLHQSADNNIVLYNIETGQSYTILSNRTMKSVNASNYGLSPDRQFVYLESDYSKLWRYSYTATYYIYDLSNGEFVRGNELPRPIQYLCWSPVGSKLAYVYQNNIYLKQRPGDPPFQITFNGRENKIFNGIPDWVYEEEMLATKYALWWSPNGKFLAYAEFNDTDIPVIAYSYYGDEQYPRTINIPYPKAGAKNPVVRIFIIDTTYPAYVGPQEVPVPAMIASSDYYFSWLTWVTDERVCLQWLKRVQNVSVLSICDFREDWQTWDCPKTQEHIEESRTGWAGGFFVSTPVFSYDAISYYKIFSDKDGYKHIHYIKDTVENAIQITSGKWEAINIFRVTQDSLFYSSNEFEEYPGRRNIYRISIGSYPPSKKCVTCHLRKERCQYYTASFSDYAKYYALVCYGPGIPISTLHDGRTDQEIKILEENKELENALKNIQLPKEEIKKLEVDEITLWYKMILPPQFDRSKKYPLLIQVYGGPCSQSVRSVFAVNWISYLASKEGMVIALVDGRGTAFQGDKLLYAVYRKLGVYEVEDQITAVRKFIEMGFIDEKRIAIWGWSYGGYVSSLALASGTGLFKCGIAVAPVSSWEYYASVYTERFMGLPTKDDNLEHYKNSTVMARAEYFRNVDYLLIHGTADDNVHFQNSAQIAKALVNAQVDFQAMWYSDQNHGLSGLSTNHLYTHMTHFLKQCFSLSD

[3] = target: T2, murine FAP expressed on HT1080 clone 13.6 cells (mouse, UniProt P97321 1-761); assay: cell ELISA on ethanol-fixed HT1080 13.6 cells expressing murine FAP; goat anti-mouse-Ig-peroxidase, TMB, OD 450 nm
T2 construct: whole, on cells; also called mouse FAP
T2 sequence (looked up): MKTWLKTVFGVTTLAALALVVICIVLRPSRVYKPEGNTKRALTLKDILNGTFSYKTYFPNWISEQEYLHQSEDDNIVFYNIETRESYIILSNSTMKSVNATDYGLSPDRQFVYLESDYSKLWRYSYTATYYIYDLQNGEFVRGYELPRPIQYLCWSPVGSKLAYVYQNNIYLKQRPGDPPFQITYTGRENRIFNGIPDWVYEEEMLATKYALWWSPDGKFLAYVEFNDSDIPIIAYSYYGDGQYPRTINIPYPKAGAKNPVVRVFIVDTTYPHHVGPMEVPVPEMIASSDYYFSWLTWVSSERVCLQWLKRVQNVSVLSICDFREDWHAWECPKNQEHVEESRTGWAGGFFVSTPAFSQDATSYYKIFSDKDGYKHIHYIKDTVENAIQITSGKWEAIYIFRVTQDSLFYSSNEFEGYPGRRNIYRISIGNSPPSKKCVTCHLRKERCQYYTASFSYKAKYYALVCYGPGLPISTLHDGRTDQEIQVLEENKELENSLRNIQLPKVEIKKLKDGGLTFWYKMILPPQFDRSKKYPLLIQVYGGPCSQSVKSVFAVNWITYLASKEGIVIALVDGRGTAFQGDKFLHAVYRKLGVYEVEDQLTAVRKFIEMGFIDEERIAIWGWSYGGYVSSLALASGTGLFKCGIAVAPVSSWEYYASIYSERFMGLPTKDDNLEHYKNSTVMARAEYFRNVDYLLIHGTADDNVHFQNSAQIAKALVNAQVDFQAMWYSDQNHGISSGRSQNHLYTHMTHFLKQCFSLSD
Description: The binding of BIBH1 and MFP5 antibodies and the respective antibody conjugates BIBH1-DM1 and MFP5-DM1 to antigen positive and negative HT1080 cells is determined in a cell-ELISA assay. […] Stable clones are generated as described for HT1080 v1.33 and clones positive for murine FAP are screened with the murine FAP specific monoclonal antibody 3D11 (Niedermeyer et al., 2000). For the cell ELISA 100 μl of cell suspensions at various cell densities are seeded per well of a 96-well microliter plate and the cells are incubated overnight in an incubator (37° C., 5% CO2). On the next day, cells are fixed with 100% ethanol. Dilutions of the antibodies BIBH1 and MFP5 and of the conjugates BIBH1-DM1 and MFP5-DM1 are added in duplicates and incubated for two hours. After washing three times with PBS/Tween, diluted rabbit anti-human-IgG-peroxidase conjugate is added for detection of the BIBH1 antibodies and for detection of the MFP5 antibodies a diluted goat anti-mouse-Ig-peroxidase conjugate is added. After incubation for two hours at RT plates are washed again three times with PBS/Tween and bound anti-FAP-antibodies detected by addition of TMB staining solution. […] A: Binding to HT1080 v1.33 expressing human FAP. The binding affinity of the antibodies is retained after conjugation to DM1. [0114] […] Only the murine specific antibody MFP5 binds. [0115] C: Negative control.

Molecule	EC50 (read off the curve) [1] [ng Ab/ml]	EC50, proliferation assay [2] [nM]	further results
humanized anti-FAP antibody BIBH1 (sibrotuzumab)	8	–	–
MFP5-DM1 (MFP5-SPP-DM1, disulfide-linked immunoconjugate) (other) VH: QVQLQQSGAELARPGASVNLSCKASGYTFTNNGINWLKQRTGQGLEWIGEIYPRSTNTLYNEKFKGKATLTADRSSNTAYMELRSLTSEDSAVYFCARTLTAPFAFWGQGTLVTVSA VL: QIVLTQSPAIMSASPGEKVTMTCSASSGVNFMHWYQQKSGTSPKRWIFDTSKLASGVPARFSGSGSGTSYSLTISSMEAEDAATYYCQQWSFNPPTFGGGTKLEIKR	–	–	EC50 (concentration resulting in 50% cytotoxic effect), MTS cytotoxicity assay, 3 days [2]: ~0.04 nM
MFP5-SPDB-DM4 (other) VH: QVQLQQSGAELARPGASVNLSCKASGYTFTNNGINWLKQRTGQGLEWIGEIYPRSTNTLYNEKFKGKATLTADRSSNTAYMELRSLTSEDSAVYFCARTLTAPFAFWGQGTLVTVSA VL: QIVLTQSPAIMSASPGEKVTMTCSASSGVNFMHWYQQKSGTSPKRWIFDTSKLASGVPARFSGSGSGTSYSLTISSMEAEDAATYYCQQWSFNPPTFGGGTKLEIKR	–	0.029	–
murine monoclonal antibody MFP5 (antibody, mouse IgG2a, V domains shown, also called BIA 13; mAbFAP5) VH: QVQLQQSGAELARPGASVNLSCKASGYTFTNNGINWLKQRTGQGLEWIGEIYPRSTNTLYNEKFKGKATLTADRSSNTAYMELRSLTSEDSAVYFCARTLTAPFAFWGQGTLVTVSA VL: QIVLTQSPAIMSASPGEKVTMTCSASSGVNFMHWYQQKSGTSPKRWIFDTSKLASGVPARFSGSGSGTSYSLTISSMEAEDAATYYCQQWSFNPPTFGGGTKLEIKR	–	–	EC50 (read off the curve) [3]: ~6 ng Ab/ml
MFP5-SMCC-DM1 (other) VH: QVQLQQSGAELARPGASVNLSCKASGYTFTNNGINWLKQRTGQGLEWIGEIYPRSTNTLYNEKFKGKATLTADRSSNTAYMELRSLTSEDSAVYFCARTLTAPFAFWGQGTLVTVSA VL: QIVLTQSPAIMSASPGEKVTMTCSASSGVNFMHWYQQKSGTSPKRWIFDTSKLASGVPARFSGSGSGTSYSLTISSMEAEDAATYYCQQWSFNPPTFGGGTKLEIKR	–	0.022	–
BIBH1-DM1 (protein, INN chains, looked up, DM1 maytansinoid conjugate) VH: QVQLVQSGAEVKKPGASVKVSCKTSRYTFTEYTIHWVRQAPGQRLEWIGGINPNNGIPNYNQKFKGRVTITVDTSASTAYMELSSLRSEDTAVYYCARRRIAYGYDEGHAMDYWGQGTLVTVSS VL: DIVMTQSPDSLAVSLGERATINCKSSQSLLYSRNQKNYLAWYQQKPGQPPKLLIFWASTRESGVPDRFSGSGFGTDFTLTISSLQAEDVAVYYCQQYFSYPLTFGQGTKVEIK	10	–	–
